Substrate in the data set: CCCCC/C=C\C/C=C\CCCCCCCC(=O)OCC(O)COC(=O)CCCCCCC/C=C\C/C=C\CCCCC
The experiment in a line: differential pulse voltammetry of released linoleic acid, CoPC/MWCNT carbon paste electrode. Format: biochemical, Sus scrofa. The note with it: sodium borate 0.1 M pH 9, room temperature, 25 min, Lineweaver-Burk plot, substrate in paraffin oil.

The Km is the concentration of substrate that gives half-maximal velocity.

B1: porcine pancreas lipase (PP-L) (Sus scrofa) (protein)
chain: SEVCFPRLGCFSDDAPWAGIVQRPLKILPWSPKDVDTRFLLYTNQNQNNYQELVADPSTITNSNFRMDRKTRFIIHGFIDKGEEDWLSNICKNLFKVESVNCICVDWKGGSRTGYTQASQNIRIVGAEVAYFVEVLKSSLGYSPSNVHVIGHSLGSHAAGEAGRRTNGTIERITGLDPAEPCFQGTPELVRLDPSDAKFVDVIHTDAAPIIPNLGFGMSQTVGHLDFFPNGGKQMPGCQKNILSQIVDIDGIWEGTRDFVACNHLRSYKYYADSILNPDGFAGFPCDSYNVFTANKCFPCPSEGCPQMGHYADRFPGKTNGVSQVFYLNTGDASNFARWRYKVSVTLSGKKVTGHILVSLFGNEGNSRQYEIYKGTLQPDNTHSDEFDSDVEVGDLQKVKFIWYNNNVINPTLPRVGASKITVERNDGKVYDFCSQETVREEVLLTLNPC
Take B1: the Michaelis-Menten constant (Km) came out at 290 µM.

(Values after paper PMC9234029, “Voltammetric lipase activity assay based on dilinolein and a modified carbon paste electrode” (Analytical and Bioanalytical Chemistry, 2022).)
